Assay results as given in paper PMC4960556.

Molecular target: prostate-specific membrane antigen (PSMA) (UniProt Q04609)
Assay: confocal microscopy on cells (binding and internalization)
Conditions: 2'-F pyrimidines (stated for PSEP; implied), Flow binding: 50 nM Cy3-RNA on trypsinized, PBS-washed cells, 300 ug/ml yeast tRNA, 30 min, 37 C, internalization: 100 nM in RPMI 1640 + 5% FBS

Chain of UniProt Q04609 (Q04609 whole entry): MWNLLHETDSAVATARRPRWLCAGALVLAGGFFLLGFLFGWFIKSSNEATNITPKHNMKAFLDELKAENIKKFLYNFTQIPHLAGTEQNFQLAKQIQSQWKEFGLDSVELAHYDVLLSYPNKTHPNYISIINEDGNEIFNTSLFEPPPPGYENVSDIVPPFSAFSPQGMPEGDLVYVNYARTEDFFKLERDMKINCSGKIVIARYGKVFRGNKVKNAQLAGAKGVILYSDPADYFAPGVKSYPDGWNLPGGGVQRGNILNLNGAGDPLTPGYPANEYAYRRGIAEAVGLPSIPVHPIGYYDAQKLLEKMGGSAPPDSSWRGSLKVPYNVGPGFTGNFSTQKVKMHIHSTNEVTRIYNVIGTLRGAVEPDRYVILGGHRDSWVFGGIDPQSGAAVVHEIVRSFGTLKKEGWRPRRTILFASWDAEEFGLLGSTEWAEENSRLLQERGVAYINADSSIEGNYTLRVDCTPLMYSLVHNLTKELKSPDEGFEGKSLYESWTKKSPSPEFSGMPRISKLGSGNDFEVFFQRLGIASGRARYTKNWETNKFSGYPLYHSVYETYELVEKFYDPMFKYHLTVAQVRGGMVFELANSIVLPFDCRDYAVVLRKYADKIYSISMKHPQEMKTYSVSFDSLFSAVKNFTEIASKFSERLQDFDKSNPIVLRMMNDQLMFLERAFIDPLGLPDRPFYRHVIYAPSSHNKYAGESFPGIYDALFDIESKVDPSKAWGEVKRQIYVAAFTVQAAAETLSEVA

Sequence: GGGAGGACGAUGCGGAUCAGCCAUGUUUACGUCACUCCUAAAAUGUAGAGAUGCGGUGGUCCUU / GGAUCCCGACUGGCGAGAGCCAGGUAACGAAUGGAUCCAAAAACCUUAGCAGUCUUAUCUAAUUUUGGACCACCGCAUCUCUACAUU / UUAGAUAAGACUGCUAAGGCA [PSEM (monovalent: one PSMA aptamer, one MG aptamer)]
- binding signal (fraction of PSEP fluorescence): 0.5
